Data as given in IntAct's records for PubMed 15744307.

B1: Short transient receptor potential channel 3 (Homo sapiens), Q13507 (parent)
chain: MSTKVRKCKEQARVTFPAPEEEEDEGEDEGAEPQRRRRGWRGVNGGLEPRSAPSQREPHGYCPPPFSHGPDLSMEGSPSLRRMTVMREKGRRQAVRGPAFMFNDRGTSLTAEEERFLDAAEYGNIPVVRKMLEESKTLNVNCVDYMGQNALQLAVGNEHLEVTELLLKKENLARIGDALLLAISKGYVRIVEAILNHPGFAASKRLTLSPCEQELQDDDFYAYDEDGTRFSPDITPIILAAHCQKYEVVHMLLMKGARIERPHDYFCKCGDCMEKQRHDSFSHSRSRINAYKGLASPAYLSLSSEDPVLTALELSNELAKLANIEKEFKNDYRKLSMQCKDFVVGVLDLCRDSEEVEAILNGDLESAEPLEVHRHKASLSRVKLAIKYEVKKFVAHPNCQQQLLTIWYENLSGLREQTIAIKCLVVLVVALGLPFLAIGYWIAPCSRLGKILRSPFMKFVAHAASFIIFLGLLVFNASDRFEGITTLPNITVTDYPKQIFRVKTTQFTWTEMLIMVWVLGMMWSECKELWLEGPREYILQLWNVLDFGMLSIFIAAFTARFLAFLQATKAQQYVDSYVQESDLSEVTLPPEIQYFTYARDKWLPSDPQIISEGLYAIAVVLSFSRIAYILPANESFGPLQISLGRTVKDIFKFMVLFIMVFFAFMIGMFILYSYYLGAKVNAAFTTVEESFKTLFWSIFGLSEVTSVVLKYDHKFIENIGYVLYGIYNVTMVVVLLNMLIAMINSSYQEIEDDSDVEWKFARSKLWLSYFDDGKTLPPPFSLVPSPKSFVYFIMRIVNFPKCRRRRLQKDIEMGMGNSKSRLNLFTQSNSRVFESHSFNSILNQPTRYQQIMKRLIKRYVLKAQVDKENDEVNEGELKEIKQDISSLRYELLEDKSQATEELAILIHKLSEKLNPSMLRCE
partner: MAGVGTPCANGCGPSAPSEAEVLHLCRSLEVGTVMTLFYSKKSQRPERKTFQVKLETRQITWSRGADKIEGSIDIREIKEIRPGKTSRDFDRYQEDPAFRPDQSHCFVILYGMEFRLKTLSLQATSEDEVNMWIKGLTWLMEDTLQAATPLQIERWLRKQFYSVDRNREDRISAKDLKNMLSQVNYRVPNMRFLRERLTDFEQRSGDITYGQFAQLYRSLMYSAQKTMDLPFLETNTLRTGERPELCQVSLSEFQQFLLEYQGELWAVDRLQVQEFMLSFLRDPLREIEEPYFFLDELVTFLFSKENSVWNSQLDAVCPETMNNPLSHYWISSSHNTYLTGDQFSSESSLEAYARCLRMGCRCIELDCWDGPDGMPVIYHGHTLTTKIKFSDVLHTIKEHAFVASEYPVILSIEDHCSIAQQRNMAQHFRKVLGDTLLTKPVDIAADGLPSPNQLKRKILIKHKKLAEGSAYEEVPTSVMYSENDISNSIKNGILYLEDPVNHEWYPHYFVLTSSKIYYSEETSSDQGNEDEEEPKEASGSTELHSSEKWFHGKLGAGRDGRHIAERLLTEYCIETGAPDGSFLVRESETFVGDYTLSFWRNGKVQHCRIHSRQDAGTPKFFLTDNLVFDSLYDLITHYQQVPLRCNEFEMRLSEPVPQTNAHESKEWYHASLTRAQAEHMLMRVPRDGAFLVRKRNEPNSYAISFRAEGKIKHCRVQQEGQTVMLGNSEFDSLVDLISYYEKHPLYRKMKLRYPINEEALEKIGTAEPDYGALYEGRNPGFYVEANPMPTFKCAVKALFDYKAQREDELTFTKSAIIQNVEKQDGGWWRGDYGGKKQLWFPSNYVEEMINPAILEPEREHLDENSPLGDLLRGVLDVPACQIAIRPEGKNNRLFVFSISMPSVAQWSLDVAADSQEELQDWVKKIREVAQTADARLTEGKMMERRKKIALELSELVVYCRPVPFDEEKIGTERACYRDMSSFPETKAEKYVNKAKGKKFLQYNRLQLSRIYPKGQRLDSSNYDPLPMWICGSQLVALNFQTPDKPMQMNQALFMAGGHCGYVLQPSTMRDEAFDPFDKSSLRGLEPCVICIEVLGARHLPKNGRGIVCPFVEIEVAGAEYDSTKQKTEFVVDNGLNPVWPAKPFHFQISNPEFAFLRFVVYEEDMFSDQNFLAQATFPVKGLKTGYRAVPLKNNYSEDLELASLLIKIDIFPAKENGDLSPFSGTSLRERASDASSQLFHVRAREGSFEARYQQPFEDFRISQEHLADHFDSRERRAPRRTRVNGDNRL

Variants of: B1
Conditions: with plcg1_rat Plcg1, P10686

Row | effect of a mutation on the interaction | Variant
1 | decreasing interaction | E113A
2 | decreasing interaction | L117A
3 | decreasing interaction | F116A
